According to patent US20240408220A1, “PEPTIDE DENDRONS AND METHODS OF USE THEREOF” (ASTRAZENECA AB, priority 2021, published 2024):
Where no end group is shown, it is not given here. [ ]: non-standard residue; d: D form. Cit = NC(=O)NCCC[C@H](N)C(=O)O

Assays:
[1] = Anionic stability assay (dextran sulfate dissociation of NPs); type: physicochemical
Description: Dextran sulfate (DS) solutions were prepared in 20 mM HEPES and added to NP solutions (prepared as in Example 4) so the final DS concentration was between […] and DNA concentration was 10 μg/mL. After a 15-minute decomplexation period, 15 μl of each formulation was added to a 2% E-gel with ethidium bromide and run for 10 minutes. pDNA release was calculated using ImageJ (NIH, Bethesda, Maryland) and the results shown in FIG. 2A where the percent of intact nanoparticles Is plotted as a function of DS concentration.

Cathepsin-B = Cathepsin-B (Homo sapiens, UniProt P07858); assay: Enzymatic DNA release from NPs by cathepsin-B; type: biochemical; conditions: relative to non-modified PD3 and all PD2 formulations
Description: NPs prepared as in Example 4 but in 8 mM L-Cysteine HCl buffer pH 6 at a final DNA concentration of 0.1 μg/μl. Cathepsin-B stock solution (60 units/mL) was subsequently added. Cat-B NP solutions were incubated at 37° C. for up to 4 hours. Aliquots were removed at the appropriate time points and analysed via agarose gel electrophoresis to visualize released DNA. DNA dilutions were prepared at different concentrations as a control and likewise added to the same agarose gel for subsequent quantification using bio-rad intensity software analysis and the results shown in FIG. 2B.

| Substance | dextran sulphate concentration above which DNA was readily released [1] | DNA release in response to cathepsin-B activity (Cathepsin-B) |
| --- | --- | --- |
| ({LEU}{ARG}8{LYS}{LEU}{ARG}4{LYS}{LEU}{ARG})2{LYS}{GLY}{VAL}{CIT}{GLY}{GLY}{SER}{CYS} (chain 1 LRKLRKLRKGV[Cit]GGSC-NH2; chain 2 LRKLRKLR; chain 3 LRKLR; also: branched dendron: side chains of K3, K6, K9 (chain 1) and K3, K6 (chain 2) amide-linked to other sequences, chain 2 C-terminus linked to another sequence) [PD1, comparison peptide dendron without modified lysines] | exceeding 50 μg/mL |  |
| ({LYS(M)}{LEU}{ARG})8({LYS}{LYS(M)}{LEU}{ARG})4({LYS}{LYS(M)}{LEU}{ARG})2{LYS}{GLY}{VAL}{CIT}{GLY}{GLY}{SER}{CYS} (chain 1 K(2‑morpholinoacetyl)LRKK(2‑morpholinoacetyl)LRKK(2‑morpholinoacetyl)LRKGV[Cit]GGSC-NH2; chain 2 K(2‑morpholinoacetyl)LRKK(2‑morpholinoacetyl)LRKK(2‑morpholinoacetyl)LR; chain 3 K(2‑morpholinoacetyl)LRKK(2‑morpholinoacetyl)LR; also: branched dendron: side chains of K4, K8, K12 (chain 1) and K4, K8 (chain 2) amide-linked to other sequences) [PD3(M)] |  | readily released DNA in response to cathepsin-B activity |
